First the molecules themselves.
T1: Rad3 (subunit of core TFIIH / TFIIH-ΔTFIIK) (S. cerevisiae, UniProt P06839 1-778)
T1 construct: Rad3, S. cerevisiae, subunit of the seven-subunit core TFIIH; contains the ARCH domain; Stood in the assay as a subunit of core TFIIH inside the reconstituted PIC-ΔTFIIK; also called XPD of metazoan TFIIH (homolog)
T1 sequence (looked up): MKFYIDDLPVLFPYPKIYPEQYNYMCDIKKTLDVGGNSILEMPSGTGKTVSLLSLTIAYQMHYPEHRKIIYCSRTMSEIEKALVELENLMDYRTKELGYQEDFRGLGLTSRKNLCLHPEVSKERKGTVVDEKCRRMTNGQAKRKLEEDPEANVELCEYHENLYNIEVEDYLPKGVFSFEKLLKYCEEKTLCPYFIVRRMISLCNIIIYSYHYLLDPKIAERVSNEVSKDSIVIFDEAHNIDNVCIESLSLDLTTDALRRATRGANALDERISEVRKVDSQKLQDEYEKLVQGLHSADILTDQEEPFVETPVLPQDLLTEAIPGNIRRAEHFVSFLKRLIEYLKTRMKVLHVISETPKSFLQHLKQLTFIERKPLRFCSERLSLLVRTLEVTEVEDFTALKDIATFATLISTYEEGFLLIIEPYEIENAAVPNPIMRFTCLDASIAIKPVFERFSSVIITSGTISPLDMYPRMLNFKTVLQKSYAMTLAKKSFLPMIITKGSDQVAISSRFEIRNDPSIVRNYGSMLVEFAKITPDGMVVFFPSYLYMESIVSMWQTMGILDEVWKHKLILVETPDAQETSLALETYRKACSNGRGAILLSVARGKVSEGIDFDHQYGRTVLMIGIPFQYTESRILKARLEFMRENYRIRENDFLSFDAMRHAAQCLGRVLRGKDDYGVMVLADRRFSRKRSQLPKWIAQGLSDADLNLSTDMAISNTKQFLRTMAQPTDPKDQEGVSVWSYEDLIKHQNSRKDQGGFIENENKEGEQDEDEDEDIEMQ

B1: Rpb4 (subunit of RNA polymerase II) (natural protein, S. cerevisiae, UniProt P20433 1-221, looked up)
chain: MNVSTSTFQTRRRRLKKVEEEENAATLQLGQEFQLKQINHQGEEEELIALNLSEARLVIKEALVERRRAFKRSQKKHKKKHLKHENANDETTAVEDEDDDLDEDDVNADDDDFMHSETREKELESIDVLLEQTTGGNNKDLKNTMQYLTNFSRFRDQETVGAVIQLLKSTGLHPFEVAQLGSLACDTADEAKTLIPSLNNKISDDELERILKELSNLETLY
notes: Rpb4, S. cerevisiae, subunit of RNA polymerase II; Stood in the assay as a subunit of pol II inside the reconstituted PIC-ΔTFIIK
B2: Tfa1 (subunit of TFIIE) (natural protein, S. cerevisiae, UniProt P36100 1-482, looked up)
chain: MDRPIDDIVKNLLKFVVRGFYGGSFVLVLDAILFHSVLAEDDLKQLLSINKTELGPLIARLRSDRLISIHKQREYPPNSKSVERVYYYVKYPHAIDAIKWKVHQVVQRLKDDLDKNSEPNGYMCPICLTKYTQLEAVQLLNFDRTEFLCSLCDEPLVEDDSGKKNKEKQDKLNRLMDQIQPIIDSLKKIDDSRIEENTFEIALARLIPPQNQSHAAYTYNPKKGSTMFRPGDSAPLPNLMGTALGNDSSRRAGANSQATLHINITTASDEVAQRELQERQAEEKRKQNAVPEWHKQSTIGKTALGRLDNEEEFDPVVTASAMDSINPDNEPAQETSYQNNRTLTEQEMEERENEKTLNDYYAALAKKQAKLNKEEEEEEEEEEDEEEEEEEEMEDVMDDNDETARENALEDEFEDVTDTAGTAKTESNTSNDVKQESINDKTEDAVNATATASGPSANAKPNDGDDDDDDDDDEMDIEFEDV
notes: Tfa1, S. cerevisiae, subunit of TFIIE; Stood in the assay as a subunit of TFIIE inside the reconstituted PIC-ΔTFIIK
B3: Tfa2 (subunit of TFIIE) (natural protein, S. cerevisiae, UniProt P36145 1-328, looked up)
chain: MSKNRDPLLANLNAFKSKVKSAPVIAPAKVGQKKTNDTVITIDGNTRKRTASERAQENTLNSAKNPVLVDIKKEAGSNSSNAISLDDDDDDEDFGSSPSKKVRPGSIAAAALQANQTDISKSHDSSKLLWATEYIQKKGKPVLVNELLDYLSMKKDDKVIELLKKLDRIEFDPKKGTFKYLSTYDVHSPSELLKLLRSQVTFKGISCKDLKDGWPQCDETINQLEEDSKILVLRTKKDKTPRYVWYNSGGNLKCIDEEFVKMWENVQLPQFAELPRKLQDLGLKPASVDPATIKRQTKRVEVKKKRQRKGKITNTHMTGILKDYSHRV
notes: Tfa2, S. cerevisiae, subunit of TFIIE; contains the WH domain; Stood in the assay as a subunit of TFIIE inside the reconstituted PIC-ΔTFIIK

The target in this assay is T1, Rad3 (subunit of core TFIIH / …). The experiment in a line: cryo-EM structure; PIC-ΔTFIIK reconstituted from purified factors (TFIIA, TFIIB, TBP, TFIIE, TFIIF, TFIIH-ΔTFIIK, pol II, TFIIS) on a HIS4 promoter DNA fragment, nucleotide-free; glycerol gradient with 0-0.125% glutaraldehyde fixation; two forms from 3D classification (form 1 at 3.7 Å, form 2 at 3.8 Å). The note with it: both partners purified.
For the molecule B1, the binding result is listed as “binds”.

Regarding B2, the binding result was “binds”.

B3: the binding result is reported as “binds”.

Source of the values: PMC11514446, “Transcription start site scanning requires the fungi-specific hydrophobic loop of Tfb3” (Nucleic Acids Research, 2024).
